Source: US20110143963A1

Assays:
[1] = target: ARVCF peptide PQPVDSWV-COOH (eight-residue motif corresponding to the ARVCF C-terminus); assay: SPR (BIAcore)
[2] = target: δ-catenin peptide PASPDSWV-COOH; assay: SPR (BIAcore)
[3] = target: eSH2-3 (human) (UniProt P62993); assay: panel B, competition phage ELISA: eSH2-3 phages incubated with free pY1139 peptide (0 to 50 nM), phages not bound to the free peptide captured and detected
[4] = target: eSH2-6 (human) (UniProt P62993); assay: panel C, competition phage ELISA: eSH2-6 phages incubated with free pY1139 peptide (0 to 50 nM), phages not bound to the free peptide captured and detected
[5] = target: SH2 domain of human Grb2 (human) (UniProt P62993); assay: panel D, competition phage ELISA: wtSH2 (Grb2-SH2) phages incubated with free pY1139 peptide (0 to about 2200 nM), phages not bound to the free peptide captured and detected
[6] = target: eSH2-6 (human) (UniProt P62993); assay: competition phage ELISA: eSH2-6 phage pre-incubated with free pY1139 peptide, unbound phage captured
[7] = target: eSH2-3 (human) (UniProt P62993); assay: competition phage ELISA: eSH2-3 phage pre-incubated with free pY1139 peptide, unbound phage captured

Chain of SH2 domain of human Grb2 (human) (P62993 56-153 limits assumed): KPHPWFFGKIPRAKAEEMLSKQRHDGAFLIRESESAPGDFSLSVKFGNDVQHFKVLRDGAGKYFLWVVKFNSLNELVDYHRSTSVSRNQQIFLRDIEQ

Kd [1] | Kd [2] | IC50 [3] | IC50 [4] | IC50 [5] | IC50 [6] | IC50 [7] | Substance
10 µM | 10 µM | – | – | – | – | – | PDZ domain of Erbin (wild-type) (from UniProt Q96RT1 1314-1412)
– | – | 0.09 nM | 0.09 nM | 0.07 µM | 90 µM | 90 µM | pY-containing peptide corresponding to residues 1130-1146 of ErbB2 (HER2) pY1139
